Earlier results on one substance are cited in paper PMC9366932.

A word on the pKa: it is the negative logarithm of the acid dissociation constant.

In the series the target is Asp309 (UniProt position 309, LIAAPDTMSVS).

As to “Aromatase (cytochrome P450 19A1), recombinant form referred to as aromatase WT (Homo sapiens)”, the pKa was 8.2.
